Experimental data from patent US20030157685A1 (GENERAL HOSPITAL CORPORATION A MASSACHUSETTS, published 2003).

Assays:
[1] = biological target: T1, LexA-N-myc bait (carboxyl-terminal 224 amino acids of human N-myc) (human, UniProt P0A7C2 1-202; P04198 241-464); experiment: yeast two-hybrid
T1 construct: also called PL-LexA-N-myc
T1 sequence (looked up): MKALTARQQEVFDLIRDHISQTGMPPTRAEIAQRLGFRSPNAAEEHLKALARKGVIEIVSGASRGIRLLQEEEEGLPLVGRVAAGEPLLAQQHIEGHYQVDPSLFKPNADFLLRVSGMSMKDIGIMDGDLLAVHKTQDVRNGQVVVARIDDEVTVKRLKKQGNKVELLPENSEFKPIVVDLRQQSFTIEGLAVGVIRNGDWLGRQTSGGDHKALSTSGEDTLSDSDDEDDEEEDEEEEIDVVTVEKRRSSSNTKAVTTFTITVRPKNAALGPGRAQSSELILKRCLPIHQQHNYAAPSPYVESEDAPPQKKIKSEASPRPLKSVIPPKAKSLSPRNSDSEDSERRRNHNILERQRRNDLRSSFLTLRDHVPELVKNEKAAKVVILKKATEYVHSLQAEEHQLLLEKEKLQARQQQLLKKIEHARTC

[2] = biological target: T2, LexA-C-myc bait (carboxy-terminal 176 amino acids of human C-myc) (human, UniProt P0A7C2 1-202; P01106 279-454); experiment: yeast two-hybrid
T2 construct: also called Lex-C-myc

B1: full length Nmi fused in-frame with the transcriptional activator B42 in JG4-5 vector (other, not shown: small tags and cut ends)
chain: MEADKDDTQQILKEHSPDEFIKDEQNKGLIDEITKKNIQLKKEIQKLETELQEATKEFQIKEDIPETKMKFLSVETPENDSQLSNISCSFQVSSKVPYEIQKGQALITFEKEEVAQNVVSMSKHHVQIKDVNLEVTAKPVPLNSGVRFQVYVEVSKMKINVTEIPDTLREDQMRDKLELSFSKFRNGGGEVDRVDYDRQSGSAVITFVEIGVADKILKKKEYPLYINQTCHRVTVSPYTEIHLKKYQIFSGTSKRTVLLTGMEGIQMDEEIVEDLINIHFQRAKNGGGEVDVVKCSLGQPHIAYFEE
notes: Yeast two-hybrid prey; the 307 amino acid protein is meant
[1]
  binding result: binds
[2]
  binding result: binds
